Data published in patent publication US20250197488A1 (MABWELL SHANGHAI BIOSCIENCE, published 2025).

T1: IL-11 (Cat. 12225-HNCE, Sino Biological Inc.) (UniProt P20809 22-199, limits assumed)
T1 sequence (looked up): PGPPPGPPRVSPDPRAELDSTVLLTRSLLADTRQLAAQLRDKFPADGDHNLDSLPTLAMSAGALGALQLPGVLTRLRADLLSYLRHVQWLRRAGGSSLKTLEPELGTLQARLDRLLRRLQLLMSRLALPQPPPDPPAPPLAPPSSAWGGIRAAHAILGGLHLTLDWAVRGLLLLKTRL

T2: human IL-11 (AAH12506.1, Pro22-Leu199) (human, UniProt P20809 22-199)
T2 construct: The range Pro22-Leu199 counts on AAH12506.1; The Octet runs say only 'human IL-11'; also called hIL-11
T2 chain: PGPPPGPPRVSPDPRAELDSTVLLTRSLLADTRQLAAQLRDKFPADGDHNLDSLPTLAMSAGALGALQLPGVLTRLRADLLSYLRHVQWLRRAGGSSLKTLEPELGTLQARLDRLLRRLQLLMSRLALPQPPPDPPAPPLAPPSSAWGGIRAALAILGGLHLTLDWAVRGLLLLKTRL


Columns and labels:
[1] = target: T1, IL-11 (Cat. 12225-HNCE, Sino Biological …); test: cell-based or functional assay
[2] = target: T2, human IL-11 (AAH12506.1, Pro22-Leu199); test: BLI (Octet), antibody on AHC probe, human IL-11 in solution
Description: (§1) When the hybridoma cells were cultured to a certain number, culture supernatants were collected and purified using Protein G affinity chromatography to obtain murine hybridoma antibodies (Hy5C2, Hy8C8, Hy16B5, Hy18A10, Hy18H10, Hy23G6 and Hy29C11). The affinity of the murine antibodies purified from the hybridoma supernatants was determined using an Octet QKe System instrument from Fortebio Inc. with an anti-mouse IgG Fc Capture biosensor to capture the Fc fragments of the antibodies, for which an anti-IL-11 antibody named “3C6-mFc” recombinantly expressed was used at the same concentration as a positive control. Specifically, a hybridoma supernatant was diluted with HBS-EP+ buffer (GE), and was allowed to pass through the surface of AMC probes (Cat: 18-5088, PALL), and so the antibody in the hybridoma supernatant was captured on the surface of the probes; then, human IL-11 diluted in the HBS-EP+ buffer (300 nM) was used as a mobile phase to react with the antibody captured on the surface of the probes. Both the binding and the dissociating were conducted for 300 seconds. When the experiment was finished, data from which response values of blank controls had been deducted was fitted using a 1:1 Langmuir binding model by software, and then kinetic constants for antigen-antibody binding were calculated. Binding signals were detected on the Octet QKe System instrument with Hy5C2, Hy8C8, Hy16B5, Hy18A10, and Hy18H10.
(§2) The affinity of hz18A10 and hz8C8 was determined according to the method provided in Example 1 using AHC bioprobes for capturing human Fc fragment instead, with other conditions unchanged. A recombinantly expressed anti-IL-11 antibody 3C6-hFc was used at the same concentration as a positive control.

[3] = target: T1, IL-11 (Cat. 12225-HNCE, Sino Biological …); test: competition ELISA: IL-11Rα-His coated, IL-11 + antibody + gp130-Fc
Description: (§3) The activity of the recombinant murine anti-IL-11 antibodies for blocking the formation of IL-11/IL-11Rα/GP130 complex was analyzed via competition ELISA. IL-11Rα-His (NP_004503.1, Met1-Val363, C-terminus-6-His Tag) was firstly added into ELISA plates to be coated overnight. Next day, samples were prepared as follows. […] After co-incubating and washing, an HRP conjugated anti-human Fc secondary antibody was added to develop the color which was then detected.

[4] = target: T1, IL-11 (Cat. 12225-HNCE, Sino Biological …); test: competition ELISA, IL-11/IL-11Rα/GP130 complex
Description: as §3
(§4) Then, light and heavy chain expression vectors for preparing mutant antibodies were constructed according to the method for preparing the recombinant antibodies provided in Example 4, using the mutant sequences shown in Table 3 which accordingly were linked with human IgG1 constant regions (SEQ ID NO. 13, and SEQ ID NO.14). Subsequently, the light chain and the heavy chain were reasonably matched and co-transfected into eukaryotic cells for transient expression, and then recombination protein samples of the mutant antibodies were obtained through affinity purification. The samples obtained were tested for affinity on Fortebio Octet, according to the method for measuring affinity provided in Example 1. Further, using the protocol provided in Example 3, hz8C8 and its affinity matured mutants were analyzed for their activity for blocking the formation of IL-11/IL-11Rα/GP130 complex.

[5] = target: T2, human IL-11 (AAH12506.1, Pro22-Leu199); test: BLI (Octet), antibody on AHC probe, human IL-11 in solution
Description: as §1, §2

[6] = target: T2, human IL-11 (AAH12506.1, Pro22-Leu199); test: BLI (Octet QKe), antibody on anti-mouse Fc probe, human IL-11 300 nM
Description: as §1

[7] = target: T2, human IL-11 (AAH12506.1, Pro22-Leu199); test: BLI (Octet), antibody captured, human IL-11 in solution
Description: The affinity of the murine antibodies purified from the hybridoma supernatants was determined using an Octet QKe System instrument from Fortebio Inc. with an anti-mouse IgG Fc Capture biosensor to capture the Fc fragments of the antibodies, for which an anti-IL-11 antibody named “3C6-mFc” recombinantly expressed was used at the same concentration as a positive control. Specifically, a hybridoma supernatant was diluted with HBS-EP+ buffer (GE), and was allowed to pass through the surface of AMC probes (Cat: 18-5088, PALL), and so the antibody in the hybridoma supernatant was captured on the surface of the probes; then, human IL-11 diluted in the HBS-EP+ buffer (300 nM) was used as a mobile phase to react with the antibody captured on the surface of the probes. Both the binding and the dissociating were conducted for 300 seconds. When the experiment was finished, data from which response values of blank controls had been deducted was fitted using a 1:1 Langmuir binding model by software, and then kinetic constants for antigen-antibody binding were calculated. Binding signals were detected on the Octet QKe System instrument with Hy5C2, Hy8C8, Hy16B5, Hy18A10, and Hy18H10.
as §2
as §4, with “1.” for “1. Further, using the protocol provided in Example 3, hz8C8 and its affinity matured mutants were analyzed for their activity for blocking the formation of IL-11/IL-11Rα/GP130 complex.”

Binder | Blocking activity (IC50), STAT3-luc reporter [1] | IC50 [3] | IC50 [4] | Kd [7] | koff [7] | kon [7] | other results
3C6-hFc (antibody, human IgG1, kappa, human IgG1 constant regions; also called positive control antibody; hz3C6) heavy: not shown light: DIVLTQSPASLALSPGERATLSCRASKSVSTSGYSYIHWYQQKPGQAPRLLIYLASNLDSGVPARFSGSGSGTDFTLTISSLEEEDFATYYCQHSRDLPPTFGQGTKLEIKRTVAAPSVFIFPPSDEQLKSGTASVVCLLNNFYPREAKVQWKVDNALQSGNSQESVTEQDSKDSTYSLSSTLTLSKADYEKHKVYACEVTHQGLSSPVTKSFNRGEC | 0.342 µg/mL |  | 1.9 µg/mL |  |  |  | Kd [5]: 0.712 nM; koff [5]: 0.000581 s⁻¹; kon [5]: 816000 M⁻¹ s⁻¹; Kd [2]: 0.712 nM; koff [2]: 0.000581 s⁻¹; kon [2]: 816000 M⁻¹ s⁻¹
3C6-mFc (antibody, mouse IgG1, murine IgG1 constant regions; also called positive control anti-IL-11 antibody) heavy: EVQLVQSGAEVKKPGASVKISCKASGYTFTDYNMDWVKQAPGQRLEWIGDINPHNGGPIYNQKFTGRATLTVDKSASTAYMELSSLRSEDTAVYYCARGELGHWYFDVWGQGTTVTVSSAKTTPPSVYPLAPGSAAQTNSMVTLGCLVKGYFPEPVTVTWNSGSLSSGVHTFPAVLQSDLYTLSSSVTVPSSTWPSETVTCNVAHPASSTKVDKKIVPRDCGCKPCICTVPEVSSVFIFPPKPKDVLTITLTPKVTCVVVDISKDDPEVQFSWFVDDVEVHTAQTQPREEQFNSTFRSVSELPIMHQDWLNGKEFKCRVNSAAFPAPIEKTISKTKGRPKAPQVYTIPPPKEQMAKDKVSLTCMITDFFPEDITVEWQWNGQPAENYKNTQPIMDTDGSYFVYSKLNVQKSNWEAGNTFTCSVLHEGLHNHHTEKSLSHSPGK light: DIVLTQSPASLALSPGERATLSCRASKSVSTSGYSYIHWYQQKPGQAPRLLIYLASNLDSGVPARFSGSGSGTDFTLTISSLEEEDFATYYCQHSRDLPPTFGQGTKLEIKRTVAAPTVSIFPPSSEQLTSGGASVVCFLNNFYPKDINVKWKIDGSERQNGVLNSWTDQDSKDSTYSMSSTLTLTKDEYERHNSYTCEATHKTSTSPIVKSFNRNEC |  | 2.1 µg/mL |  |  |  |  | Kd [6]: 0.712 nM; koff [6]: 0.000581 s⁻¹; kon [6]: 816000 M⁻¹ s⁻¹
hz8C8 (antibody, human IgG1, kappa, V domains shown, humanized, human constant regions; also called hz8C8-VH + hz8C8-VL; parent antibody hz8C8) VH: EVQLVESGGGLVQPGGSLRLSCAASGFTFSSFGMHWVRQAPGKGLEWVAYITSGSNTIYYADTVKGRFTISRDNAKNSLYLQMNSLRAEDTAVYYCAREYYSYDEGFAYWGQGTLVTVSS VL: EIVLTQSPATLSLSPGERATLSCSVSSSISSNYLHWYQQKPGQAPRLLIYRTSNLASGIPARFSGSGSGTDFTLTISSLEPEDFAVYYCQQGVDVPFTFGQGTKLEIKR | 2.04 µg/mL |  | 2.56 µg/mL |  |  |  | Kd [5]: 1.6 nM; koff [5]: 0.00134 s⁻¹; kon [5]: 836000 M⁻¹ s⁻¹
hz8C8-VHm5 + hz8C8-VLm7 (antibody, human IgG1, kappa, V domains shown, human IgG1 constant regions) VH: EVQLVESGGGLVQPGGSLRLSCAASGFTFSSFGMSWVRQAPGKGLEWVAYITPGSNTIYYADTVKGRFTISRDNAKNSLYLQMNSLRAEDTAVYYCAREYYSYDEGFAYWGQGTLVTVSS VL: EIVLTQSPATLSLSPGERATLSCSVSDLIPSQYLHWYQQKPGQAPRLLIYRTSNLASGIPARFSGSGSGTDFTLTISSLEPEDFAVYYCQQGVDVPFTFGQGTKLEIKR | 0.01 µg/mL |  | 0.65 µg/mL | 0.19 nM | 0.000175 s⁻¹ | 920000 M⁻¹ s⁻¹ | 
hz8C8-VHm4 + hz8C8-VL (antibody, human IgG1, kappa, V domains shown, human IgG1 constant regions) VH: EVQLVESGGGLVQPGGSLRLSCAASGFTFSSFGMHWVRQAPGKGLEWVAYITSGANTIYYADTVKGRFTISRDNAKNSLYLQMNSLRAEDTAVYYCAREYYSYDEGFAYWGQGTLVTVSS VL: EIVLTQSPATLSLSPGERATLSCSVSSSISSNYLHWYQQKPGQAPRLLIYRTSNLASGIPARFSGSGSGTDFTLTISSLEPEDFAVYYCQQGVDVPFTFGQGTKLEIKR | 1.54 µg/mL |  | 1.01 µg/mL | 1.37 nM | 0.0012 s⁻¹ | 878000 M⁻¹ s⁻¹ | 

Continued, in another order:

Blocking activity (IC50), STAT3-luc reporter [1] | IC50 [3] | IC50 [4] | Kd [7] | koff [7] | kon [7] | Binder | other results
18.5 µg/mL |  |  |  |  |  | hz18A10 (antibody, human IgG1, kappa, V domains shown, humanized, human constant regions; also called hz18A10-VH + hz18A10-VL; parent antibody hz18A10) VH: EVQLVQSGAEVKKPGASVKVSCKASGYTFTTYNMDWVRQAPGQGLEWMGTIYPGNGDTSYNQKFKGRVTMTRDTSTSTVYMELSSLRSEDTAVYYCARGDLYALDYWGQGTLVTVSS VL: DIQMTQSPSSLSASVGDRVTITCKASQSVSNDVAWYQQKPGKAPKLLIYSASNRYTGVPSRFSGSGSGTDFTFTISSLQPEDIATYYCQHDYSSPYTFGQGTKLEIKR | Kd [2]: 3.21 nM; koff [2]: 0.00249 s⁻¹; kon [2]: 773000 M⁻¹ s⁻¹
 | 1.61 µg/mL |  |  |  |  | mu8C8 (antibody, V domains shown, also called recombinant murine antibody 8C8) VH: DVQLVESGGGLVQPGGSRKLSCAASGFTFSSFGMHWVRQSPERGLEWVAYITSGSNTIYYADTVKGRFTISRDNPENTLFLQMTSLRSEDTAMYYCAREYYSYDEGFAYWGQGTLVTVSA VL: EIVLTQSPTTMAASPGEKITITCSVSSSISSNYLHWYQQKPGFSPKLLIYRTSNLASGVPARFSGSGSGTSHSLTIDTMEAEDVATYYCQQGVDVPFTFGSGTKLEIKR | 
 | 1.4 µg/mL |  |  |  |  | mu18A10 (antibody, V domains shown, also called recombinant murine antibody 18A10) VH: QVQLQQPGAELVKPGASVKMSCKASGYKFITYNMDWVKQTPGQGLEWIGTIYPGNGDTSYNQKFKGKATLTADKSSSTAYMQLSSLTSEDSAVYYCARGDLYALDYWGQGTSVTVSS VL: SIVMTQTPKFLLVSAGDRVTITCKASQSVSNDVAWYQQKPGQSPKLLIYSASNRYTGVPDRFTGSGYGTDFTFTINTVQAEDLAVYFCQHDYSSPYTFGGGTKLEIKR | 
0.066 µg/mL |  | 0.54 µg/mL | 0.156 nM | 0.000127 s⁻¹ | 812000 M⁻¹ s⁻¹ | hz8C8-VHm6 + hz8C8-VLm7 (antibody, human IgG1, kappa, V domains shown, human IgG1 constant regions) VH: EVQLVESGGGLVQPGGSLRLSCAASGFTFSSFGMHWVRQAPGKGLEWVAYITPGSSTIYYADTVKGRFTISRDNAKNSLYLQMNSLRAEDTAVYYCAREYYSYDEGFAYWGQGTLVTVSS VL: EIVLTQSPATLSLSPGERATLSCSVSDLIPSQYLHWYQQKPGQAPRLLIYRTSNLASGIPARFSGSGSGTDFTLTISSLEPEDFAVYYCQQGVDVPFTFGQGTKLEIKR | 
